Results reported in US20210403567A1, “METHODS OF TREATING CERVICAL CANCER BY ADMINISTERING A PD-1 INHIBITOR” (priority 2020, published 2021).
Where “and” joins values, the source holds several entries; their conditions need not be identical. Equal entries are not always repeated. Where two headings read alike, the source gives them in different places.

Tests used:
[1] = test system: cervical cancer; experiment: Dose escalation cohort of the cemiplimab first-in-human study, cervical cancer patients; format: in vivo; settings: one cervical squamous patient, earlier response to cemiplimab+hfRT in dose escalation
Source text: (Papadopoulos et al., Clin Cancer Res (December 2019) Epub). The sum total equates to a 17% objective response rate among cervical cancer patients enrolled in the phase I study (4/23 combined; 2/3 responding patients in dose escalation plus 2/20 in expansion cohorts). All responders had squamous histology.

[2] = Grade 3-5, cemiplimab N=300, chemotherapy N=290
[3] = any grade, cemiplimab N=300, chemotherapy N=290

## cemiplimab
[1]
  response to retreatment after disease recurrence: complete response
[2]
  Sponsor-identified immune-related AEs: Led to death: 0 n (%)
  Treatment-emergent AEs that led to death: 5 (1.7) n (%)
  Treatment-related AEs: Led to death: 0 n (%)
[3]
  Number of patients with any TEAE resulting in death: 5 n (%) and 5 (1.7) n (%)
  Sponsor-identified immune-related AEs: Led to death: 0 n (%)
  Treatment-related AEs: Led to death: 0 n (%)
In vivo
  AEs observed, patients: 88%
  Grade 3 or higher AEs, patients: 45%
  Number of NCI grade 3/4/5 TEAEs: 299
  Number of TEAEs: 1969
  Number of patients with any TEAE leading to a dose interruption/delay: 75 n (%)
  Number of patients with any TEAE leading to a dose reduction: 0 n (%)
  Number of patients with any serious TEAE: 89 n (%)
  Number of serious TEAEs: 147
  Treatment-emergent AEs that led to discontinuation: 20 (6.7) n (%)
  anemia, patients: 25%
  asthenia, patients: 2%
  constipation, patients: 15%
  decreased appetite, patients: 15%
  fatigue, patients: 17%
  nausea, patients: 18%
  pyrexia, patients: less than 1%
  vomiting, patients: 16%
